Assay results as given in article PMC3441751, “Structure and Assembly of a Trans-Periplasmic Channel for Type IV Pili in Neisseria meningitidis” (PLoS Pathogens, 2012).

Biological target: the molecule itself
Experiment: cryo-EM structure; single particle averaging of unstained frozen-hydrated PilQ complexes in a dodecyl maltoside-containing buffer at 1 mg/ml; 25,303 particles; C12 symmetry

B1: PilQ dodecamer (complete N. meningitidis PilQ oligomer) (natural protein)
chain: GNITDIKVSSLPNKQKIVKVSFDKEIVNPTGFVTSSPARIALDFEQTGISMDQQVLEYADPLLSKISAAQNSSRARLVLNLNKPGQYNTEVRGNKVWIFINESDDTVSAPARPAVKAAPAAPAKQQAAAPSTKSAVSVSEPFTPAKQQAAAPFTESVVSVSAPFSPAKQQAAASAKQQAAAPAKQQAAAPAKQQAAAPAKQTNIDFRKDGKNAGIIELAALGFAGQPDISQQHDHIIVTLKNHTLPTTLQRSLDVADFKTPVQKVTLKRLNNDTQLIITTAGNWELVNKSAAPGYFTFQVLPKKQNLESGGVNNAPKTFTGRKISLDFQDVEIRTILQILAKESGMNIVASDSVNGKMTLSLKDVPWDQALDLVMQARNLDMRQQGNIVNIAPRDELLAKDKALLQAEKDIADLGALYSQNFQLKYKNVEEFRSILRLDNADTTGNRNTLISGRGSVLIDPATNTLIVTDTRSVIEKFRKLIDELDVPAQQVMIEARIVEAADGFSRDLGVKFGATGKKKLKNDTSAFGWGVNSGFGGDDKWGAETKINLPITAAANSISLVRAISSGALNLELSASESLSKTKTLANPRVLTQNRKEAKIESGYEIPFTVTSIANGGSSTNTELKKAVLGLTVTPNITPDGQIIMTVKINKDSPAQCASGNQTILCISTKNLNTQAMVENGGTLIVGGIYEEDNGNTLTKVPLLGDIPVIGNLFKTRGKKTDRRELLIFITPRIMGTAGNSLRY
notes: PilQ secretin, Neisseria meningitidis; The source of the sample is in Text S1; also called entire PilQ dodecamer; intact PilQ oligomer; source: PilQ complexes resuspended in a dodecyl maltoside-containing buffer at 1 mg/ml; copies: 12
stoichiometry N: 12
